Each block holds one molecule with its values, some of them ahead of it.
Key:
[1] = target: regulatory p85α subunit of bovine PI 3-kinase (bovine) (UniProt P23727); assay: SPR competition: 100 nM p85α with soluble peptide over the same peptide immobilised
[2] = target: regulatory p85α subunit of bovine PI 3-kinase (bovine) (UniProt P23727); assay: SPR (Biacore) competition: 100 nM p85α preincubated with soluble peptide, injected over the same peptide immobilised; two site competition fit, first value
[3] = target: regulatory p85α subunit of bovine PI 3-kinase (bovine) (UniProt P23727); assay: SPR (Biacore) competition: 100 nM p85α preincubated with soluble peptide, injected over the same peptide immobilised; two site competition fit, second value
[4] = target: GST fusion protein containing amino acids 449-664 of rat IRS-1 (rIRS-1 449-664), no PKC pretreatment (rat) (UniProt P35570); assay: cell-based or functional assay
[5] = target: rIRS-1 449-664 GST fusion protein preincubated with PKC from rat brain (PKC-rb), then tyrosine phosphorylated by insulin receptor (rat) (UniProt P35570); assay: cell-based or functional assay
[6] = target: rIRS-1 449-664 GST fusion protein preincubated with PKC-ζ, then tyrosine phosphorylated by insulin receptor (rat) (UniProt P35570); assay: cell-based or functional assay
[7] = target: rIRS-1 449-664 S570A GST fusion protein preincubated with PKC-ζ, then tyrosine phosphorylated by insulin receptor (rat) (UniProt P35570); assay: cell-based or functional assay
[8] = target: rIRS-1 449-664 S612A GST fusion protein preincubated with PKC-ζ, then tyrosine phosphorylated by insulin receptor (rat) (UniProt P35570); assay: cell-based or functional assay
[9] = target: rIRS-1 449-664 S570A GST fusion protein preincubated with PKC-ζ, then tyrosine phosphorylated by insulin receptor (rat) (UniProt P35570); assay: GST pull-down and immunoblot; against the insulin-stimulated control without PKC-ζ set as 100%
[10] = target: rIRS-1 449-664 S612A GST fusion protein preincubated with PKC-ζ, then tyrosine phosphorylated by insulin receptor (rat) (UniProt P35570); assay: as above
[11] = target: rIRS-1 449-664 GST fusion protein preincubated with PKC from rat brain (PKC-rb), then tyrosine phosphorylated by insulin receptor (rat) (UniProt P35570); assay: GST pull-down and immunoblot; against insulin-stimulated rIRS-1 449-664 without PKC set as 100%
[12] = target: rIRS-1 449-664 GST fusion protein preincubated with PKC-ζ, then tyrosine phosphorylated by insulin receptor (rat) (UniProt P35570); assay: GST pull-down and immunoblot; against insulin-stimulated rIRS-1 449-664 without PKC-ζ set as 100%
[13] = target: T1, GST fusion protein containing amino acids 449-664 of rat IRS-1 (rIRS-1 449-664), no PKC pretreatment
T1 chain: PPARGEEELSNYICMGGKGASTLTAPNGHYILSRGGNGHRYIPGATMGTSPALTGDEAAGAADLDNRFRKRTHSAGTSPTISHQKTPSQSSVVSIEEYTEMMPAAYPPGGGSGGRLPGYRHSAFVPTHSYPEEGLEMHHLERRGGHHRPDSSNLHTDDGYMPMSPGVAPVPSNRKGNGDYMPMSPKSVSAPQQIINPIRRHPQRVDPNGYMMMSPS

Sequence of regulatory p85α subunit of bovine PI 3-kinase (bovine) (P23727 whole entry, the tested form may be a part): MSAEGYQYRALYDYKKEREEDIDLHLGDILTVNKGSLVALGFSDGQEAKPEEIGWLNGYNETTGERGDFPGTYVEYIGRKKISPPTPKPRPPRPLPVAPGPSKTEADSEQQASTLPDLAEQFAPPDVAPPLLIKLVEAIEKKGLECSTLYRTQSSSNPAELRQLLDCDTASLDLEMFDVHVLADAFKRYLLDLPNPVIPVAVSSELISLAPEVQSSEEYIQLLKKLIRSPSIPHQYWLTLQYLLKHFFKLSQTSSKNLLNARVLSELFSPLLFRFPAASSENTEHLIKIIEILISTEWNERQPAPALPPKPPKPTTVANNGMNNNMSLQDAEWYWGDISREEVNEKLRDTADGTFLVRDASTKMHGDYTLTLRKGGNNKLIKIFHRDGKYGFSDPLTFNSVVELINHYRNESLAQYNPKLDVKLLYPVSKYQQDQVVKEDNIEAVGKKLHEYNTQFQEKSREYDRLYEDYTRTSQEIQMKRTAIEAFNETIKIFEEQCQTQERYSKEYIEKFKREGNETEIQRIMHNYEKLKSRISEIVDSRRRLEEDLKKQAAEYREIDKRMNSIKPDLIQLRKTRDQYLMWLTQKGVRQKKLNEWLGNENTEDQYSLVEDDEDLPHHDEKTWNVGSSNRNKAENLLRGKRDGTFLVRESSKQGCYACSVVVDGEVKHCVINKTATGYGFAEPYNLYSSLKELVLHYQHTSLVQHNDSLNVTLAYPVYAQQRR

Molecule: IRS-1 peptide pY608-pS612 (DDGpYMPMpSPGV), amino acids 605 to 615 of rat IRS-1 with phosphotyrosine 608 and phosphoserine 612
peptide concentration for complete inhibition [1]: 10 µM
IC50 [2]: 150 nM
IC50 [3]: 2880 nM

Molecule: insulin receptor, WGA-purified from rat liver, insulin-stimulated and autophosphorylated (from UniProt P15127 27-1383)
insulin-stimulated tyrosine phosphorylation of rIRS-1^449-664, fold over basal [4]: 8.8 fold
reduction of insulin-stimulated tyrosine phosphorylation [5]: 27%
inhibition of tyrosine phosphorylation [6]: 46%
reduction of tyrosine phosphorylation by IR after PKC-ζ pretreatment [6]: 30 to 40%
reduction of tyrosine phosphorylation by IR after PKC-ζ pretreatment [7]: 30 to 40%
reduction of tyrosine phosphorylation by IR after PKC-ζ pretreatment [8]: 30 to 40%

B1: recombinant human protein kinase C-ζ (protein)
chain: MPSRTGPKMEGSGGRVRLKAHYGGDIFITSVDAATTFEELCEEVRDMCRLHQQHPLTLKWVDSEGDPCTVSSQMELEEAFRLARQCRDEGLIIHVFPSTPEQPGLPCPGEDKSIYRRGARRWRKLYRANGHLFQAKRFNRRAYCGQCSERIWGLARQGYRCINCKLLVHKRCHGLVPLTCRKHMDSVMPSQEPPVDDKNEDADLPSEETDGIAYISSSRKHDSIKDDSEDLKPVIDGMDGIKISQGLGLQDFDLIRVIGRGSYAKVLLVRLKKNDQIYAMKVVKKELVHDDEDIDWVQTEKHVFEQASSNPFLVGLHSCFQTTSRLFLVIEYVNGGDLMFHMQRQRKLPEEHARFYAAEICIALNFLHERGIIYRDLKLDNVLLDADGHIKLTDYGMCKEGLGPGDTTSTFCGTPNYIAPEILRGEEYGFSVDWWALGVLMFEMMAGRSPFDIITDNPDMNTEDYLFQVILEKPIRIPRFLSVKASHVLKGFLNKDPKERLGCRPQTGFSDIKSHAFFRSIDWDLLEKKQALPPFQPQITDDYGLDNFDTQFTSEPVQLTPDDEDAIKRIDQSEFEGFEYINPLLLSTEESV
32P incorporation, SDS-PAGE and autoradiography [13]: a prominent phosphorylation of rIRS-1^449-664 by PKC became detectable
phosphopeptide mapping by HPLC of wild type and S570A [13]: serine 570 of IRS-1 is a novel phosphorylation site targeted by PKC-ζ

More lines, now with the values ahead:

peptide concentration for complete inhibition [1]: 10 µM
IC50 [2]: 260 nM
IC50 [3]: 16600 nM
Molecule: IRS-1 peptide pY608 (DDGpYMPMSPGV), amino acids 605 to 615 of rat IRS-1 with phosphotyrosine 608

p85α binding, % of control [9]: 43 % of control
p85α binding, % of control [10]: 28 % of control
inhibition of the association of p85α [11]: 49%
inhibition of p85α binding [12]: 81%
Molecule: regulatory p85α subunit of bovine PI 3-kinase (from UniProt P23727 1-724)

From patent publication US20050106653A1
